Assay: size-exclusion chromatography
Conditions: glycan lost; control: glycosylated IFNγR2

Row | Protein | oligomerisation
1 | interferon-γ receptor 2 (IFNγR2): Endo H (protein) parent chain: MRPTLLWSLLLLLGVFAAAAAAPPDPLSQLPAPQHPKIRLYNAEQVLSWEPVALSNSTRPVVYQVQFKYTDSKWFTADIMSIGVNCTQITATECDFTAASPSAGFPMDFNVTLRLRAELGALHSAWVTMPWFQHYRNVTVGPPENIEVTPGEGSLIIRFSSPFDIADTSTAFFCYYVHYWEKGGIQQVKGPFRSNSISLDNLKPSRVYCLQVQAQLLWNKSNIFRVGHLSNISCYETMADASTELQQVILISVGTFSLLSVLAGACFFLVLKYRGLIKYWFHTPPSIPLQIEEYLKDPTQPILEALDKDSSPKDDVWDSVSIISFPEKEQEDVLQTL | no change
2 | interferon-γ receptor 2 (IFNγR2): PNGase F (protein) parent chain: MRPTLLWSLLLLLGVFAAAAAAPPDPLSQLPAPQHPKIRLYNAEQVLSWEPVALSNSTRPVVYQVQFKYTDSKWFTADIMSIGVNCTQITATECDFTAASPSAGFPMDFNVTLRLRAELGALHSAWVTMPWFQHYRNVTVGPPENIEVTPGEGSLIIRFSSPFDIADTSTAFFCYYVHYWEKGGIQQVKGPFRSNSISLDNLKPSRVYCLQVQAQLLWNKSNIFRVGHLSNISCYETMADASTELQQVILISVGTFSLLSVLAGACFFLVLKYRGLIKYWFHTPPSIPLQIEEYLKDPTQPILEALDKDSSPKDDVWDSVSIISFPEKEQEDVLQTL | increases

Assay: secretion into S2 culture medium
Conditions: glycan lost; control: wild type

Row | Protein | expression_or_secretion
3 | interferon-γ receptor 2 (IFNγR2): N110Q (protein) parent chain: MRPTLLWSLLLLLGVFAAAAAAPPDPLSQLPAPQHPKIRLYNAEQVLSWEPVALSNSTRPVVYQVQFKYTDSKWFTADIMSIGVNCTQITATECDFTAASPSAGFPMDFNVTLRLRAELGALHSAWVTMPWFQHYRNVTVGPPENIEVTPGEGSLIIRFSSPFDIADTSTAFFCYYVHYWEKGGIQQVKGPFRSNSISLDNLKPSRVYCLQVQAQLLWNKSNIFRVGHLSNISCYETMADASTELQQVILISVGTFSLLSVLAGACFFLVLKYRGLIKYWFHTPPSIPLQIEEYLKDPTQPILEALDKDSSPKDDVWDSVSIISFPEKEQEDVLQTL | abolishes
4 | interferon-γ receptor 2 (IFNγR2): N231Q (protein) parent chain: MRPTLLWSLLLLLGVFAAAAAAPPDPLSQLPAPQHPKIRLYNAEQVLSWEPVALSNSTRPVVYQVQFKYTDSKWFTADIMSIGVNCTQITATECDFTAASPSAGFPMDFNVTLRLRAELGALHSAWVTMPWFQHYRNVTVGPPENIEVTPGEGSLIIRFSSPFDIADTSTAFFCYYVHYWEKGGIQQVKGPFRSNSISLDNLKPSRVYCLQVQAQLLWNKSNIFRVGHLSNISCYETMADASTELQQVILISVGTFSLLSVLAGACFFLVLKYRGLIKYWFHTPPSIPLQIEEYLKDPTQPILEALDKDSSPKDDVWDSVSIISFPEKEQEDVLQTL | abolishes
5 | interferon-γ receptor 2 (IFNγR2): N137Q (protein) parent chain: MRPTLLWSLLLLLGVFAAAAAAPPDPLSQLPAPQHPKIRLYNAEQVLSWEPVALSNSTRPVVYQVQFKYTDSKWFTADIMSIGVNCTQITATECDFTAASPSAGFPMDFNVTLRLRAELGALHSAWVTMPWFQHYRNVTVGPPENIEVTPGEGSLIIRFSSPFDIADTSTAFFCYYVHYWEKGGIQQVKGPFRSNSISLDNLKPSRVYCLQVQAQLLWNKSNIFRVGHLSNISCYETMADASTELQQVILISVGTFSLLSVLAGACFFLVLKYRGLIKYWFHTPPSIPLQIEEYLKDPTQPILEALDKDSSPKDDVWDSVSIISFPEKEQEDVLQTL | abolishes
6 | interferon-γ receptor 2 (IFNγR2): N56Q, N110Q, N137Q and N231Q (protein) parent chain: MRPTLLWSLLLLLGVFAAAAAAPPDPLSQLPAPQHPKIRLYNAEQVLSWEPVALSNSTRPVVYQVQFKYTDSKWFTADIMSIGVNCTQITATECDFTAASPSAGFPMDFNVTLRLRAELGALHSAWVTMPWFQHYRNVTVGPPENIEVTPGEGSLIIRFSSPFDIADTSTAFFCYYVHYWEKGGIQQVKGPFRSNSISLDNLKPSRVYCLQVQAQLLWNKSNIFRVGHLSNISCYETMADASTELQQVILISVGTFSLLSVLAGACFFLVLKYRGLIKYWFHTPPSIPLQIEEYLKDPTQPILEALDKDSSPKDDVWDSVSIISFPEKEQEDVLQTL | abolishes

— article PMC5013595
